A word on the Km: it is the substrate concentration at which the rate is half of its maximum.

Data set [1] relates to Nc1ncnc2c1ncn2[C@@H]1O[C@H](COP(=O)(O)OP(=O)(O)O)[C@@H](O)[C@H]1O. In words: phosphotransferase activity, ATP by luciferin-luciferase. It is filed as biochemical, Pseudomonas aeruginosa. The conditions noted are these: polyP25 or polyP65 as phosphate donor, 5 mM Mg2+, Tris-HCl pH 8.0, 37°C, one rounded value for both variants and both polyP, data not shown.
For a further data set, the target named is T1, paPpx(1–506) (Pseudomonas aeruginosa, UniProt Q9ZN70).
T1 construct: gene ppx
T1 sequence (Q9ZN70 whole entry): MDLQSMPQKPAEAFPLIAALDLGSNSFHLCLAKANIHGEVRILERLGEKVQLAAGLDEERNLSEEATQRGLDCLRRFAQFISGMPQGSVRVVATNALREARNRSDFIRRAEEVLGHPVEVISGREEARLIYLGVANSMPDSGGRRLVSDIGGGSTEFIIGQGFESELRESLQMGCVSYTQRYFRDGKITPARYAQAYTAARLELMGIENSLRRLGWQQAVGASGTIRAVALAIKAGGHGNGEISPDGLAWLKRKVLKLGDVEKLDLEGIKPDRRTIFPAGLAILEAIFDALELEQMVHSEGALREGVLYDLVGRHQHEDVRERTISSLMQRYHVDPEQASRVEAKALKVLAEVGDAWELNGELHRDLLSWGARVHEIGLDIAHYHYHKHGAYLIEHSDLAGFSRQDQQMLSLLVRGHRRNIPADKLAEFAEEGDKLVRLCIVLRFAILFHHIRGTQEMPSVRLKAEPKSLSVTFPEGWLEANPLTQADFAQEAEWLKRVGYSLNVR
Particulars: 8 μM polyP65, 5 mM Mg2+, Tris-HCl pH 8.0, 37°C; nonessential activator, sigmoid curve.

“paPpx(1–506) (Pseudomonas aeruginosa PAO1)”: the Km in data set [1] was 90 µM. Turning to `N` [NH4^+], on paPpx(1–506), the “K 0.5(app)NH4^+” value was determined as 10 ± 0.4 mM. With “N-paPpx(1–314) (Pseudomonas aeruginosa PAO1)”, the Km in data set [1] was found to be 90 µM.
